The source of these data is patent US20210155689A1 (SHANGHAI PHARMAEXPLORER, published 2021).

The target in assay [1] is T1, human LAG-3 on cells (HEK293-hLAG-3 stable cell line) (human, UniProt P18627 23-525).
T1 sequence: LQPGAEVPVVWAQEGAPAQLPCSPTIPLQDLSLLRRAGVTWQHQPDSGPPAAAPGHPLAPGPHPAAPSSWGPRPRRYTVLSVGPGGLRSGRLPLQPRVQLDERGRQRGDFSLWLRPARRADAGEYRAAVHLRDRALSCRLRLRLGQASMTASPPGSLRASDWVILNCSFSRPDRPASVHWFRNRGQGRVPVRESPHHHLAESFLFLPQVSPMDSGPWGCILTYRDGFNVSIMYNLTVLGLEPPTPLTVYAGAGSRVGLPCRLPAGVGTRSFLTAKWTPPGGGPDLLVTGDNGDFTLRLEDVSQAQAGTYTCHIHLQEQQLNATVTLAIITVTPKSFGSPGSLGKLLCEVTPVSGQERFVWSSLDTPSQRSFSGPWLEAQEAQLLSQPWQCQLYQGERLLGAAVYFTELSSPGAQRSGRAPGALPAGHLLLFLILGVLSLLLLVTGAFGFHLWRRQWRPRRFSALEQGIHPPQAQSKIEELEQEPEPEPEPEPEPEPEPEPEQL
In words: FACS, HEK293-hLAG-3, antibody 0.064 nM. An excerpt: (§1) A. The binding of antibodies to LAG-3 expressing cells was detected by Flow cytometry (FACS), wherein the method was according to that of Example 5.

Assay [2] has as its target T1, human LAG-3 on cells (HEK293-hLAG-3 …). In words: FACS, HEK293-hLAG-3, antibody 40 nM.
Text: as §1

The target is the same in assay [3]. In words: FACS, HEK293-hLAG-3, antibody 0 nM.
Assay [4] has the same target. In words: FACS, HEK293-hLAG-3, antibody 0.32 nM.
Text: as §1

For assay [5] the target is unchanged. In words: FACS, HEK293-hLAG-3, antibody 1.6 nM.
For assay [6] the target is unchanged. In words: FACS, HEK293-hLAG-3, antibody 8 nM.
Text: as §1

Assay [7] has the same target. In words: FACS, HEK293-hLAG-3, antibody 0.013 nM.
Text: as §1

B1: 405B8H3-3 humanized antibody (antibody, V domains shown)
VH: QVQLVQSGAEVKKPGASVKVSCKASGYTFTDYEMHWVRQAPGQGLEWIGATDPETGNSAYNQKFKGRATMTADKSTSTAYMELSSLRSEDTAVYYCISTGWNDWGQGTTVTVSS
VL: DIQMTQSPSSLSASVGDRVTITCKASQDINSYLSWFQQKPGKAPKSLIYRADRLLDGVPSRFSGSGSGTDFTLTISSLQPEDFATYYCLQYDEFPYTFGQGTKLEIK
As to B1, the Mean fluorescence intensity in assay [1] stood at 26; in assay [2], 253; in assay [3], 4; in assay [4] it was 74; in assay [5], 173; in assay [6], 230. Further, the Mean fluorescence intensity in assay [7] was found to be 11.

B2: 405B8H3-9 humanized antibody (antibody, V domains shown)
VH: QVQLVQSGAEVKKPGASVKVSCKASGYTFTDYEMHWVRQAPGQGLEWMGATDPETGNSAYNQKFKGRVTMTRDTSTSTVYMELSSLRSEDTAVYYCISTGWNDWGQGTTVTVSS
VL: DIKMTQSPSSLSASVGDRVTITCKASQDINSYLSWFQQKPGKSPKSLIYRADRLLDGVPSRFSGSGSGQDYTLTISSLQPEDFATYYCLQYDEFPYTFGQGTKLEIK
In the case of B2, the Mean fluorescence intensity amounted to 43 in assay [1]; 249 in assay [2]; 4 in assay [3]; 132 in assay [4]; 218 in assay [5]; 246 in assay [6]. Also, in assay [7], the Mean fluorescence intensity was 14.

B3: 405B8H3-4 humanized antibody (antibody, V domains shown)
VH: QVQLVQSGAEVKKPGASVKVSCKASGYTFTDYEMHWVKQAPGQGLEWIGATDPETGNSAYNQKFKGKATMTADKSTSTAYMELSSLRSEDTAVYYCISTGWNDWGQGTTVTVSS
VL: DIQMTQSPSSLSASVGDRVTITCKASQDINSYLSWFQQKPGKAPKSLIYRADRLLDGVPSRFSGSGSGTDFTLTISSLQPEDFATYYCLQYDEFPYTFGQGTKLEIK
For B3, the Mean fluorescence intensity in assay [1] was found to be 23; in assay [2] it was 251; in assay [3] it was 4; in assay [4] it was 63; in assay [5], 151; in assay [6] it was 217. Besides, the Mean fluorescence intensity in assay [7] worked out at 10.

B4: 405B8H3-8 humanized antibody (antibody, V domains shown)
VH: QVQLVQSGAEVKKPGASVKVSCKASGYTFTDYEMHWVKQAPGQGLEWIGATDPETGNSAYNQKFKGKATMTADKSTSTAYMELSSLRSEDTAVYYCISTGWNDWGQGTTVTVSS
VL: DIQMTQSPSSLSASVGDRVTITCKASQDINSYLSWFQQKPGKAPKSLIYRADRLLDGVPSRFSGSGSGQDYTLTISSLQPEDFATYYCLQYDEFPYTFGQGTKLEIK
For B4, the Mean fluorescence intensity in assay [1] was determined as 19; in assay [2], 242; in assay [3] it was 4; in assay [4] it was 52; in assay [5], 134; in assay [6], 213. In assay [7], this molecule showed a Mean fluorescence intensity of 8.

B5: 405B8H3-5 humanized antibody (antibody, V domains shown)
VH: QVQLVQSGAEVKKPGASVKVSCKASGYTFTDYEMHWVRQAPGQGLEWMGATDPETGNSAYNQKFKGRVTMTRDTSTSTVYMELSSLRSEDTAVYYCISTGWNDWGQGTTVTVSS
VL: DIQMTQSPSSLSASVGDRVTITCKASQDINSYLSWFQQKPGKAPKSLIYRADRLLDGVPSRFSGSGSGQDYTLTISSLQPEDFATYYCLQYDEFPYTFGQGTKLEIK
On to B5, for which the Mean fluorescence intensity amounted to 21 in assay [1]; 257 in assay [2]; 4 in assay [3]; 62 in assay [4]; 174 in assay [5]; 243 in assay [6]. For the same molecule, in assay [7], the Mean fluorescence intensity was determined as 9.
